{"source": "paper PMC4598300", "target": "tag-free PTEN (human) (UniProt P60484)", "experiment": "SEC-SAXS"}
{"substance": "tag-free PTEN, P60484 1-403 (enzyme; other documents disagree on this pair)", "values": [{"measurement": "stoichiometry N", "value": 2}]}
